Data: patent publication US20200079855A1 (Pfizer, published 2020)
Substitutions are numbered along the chain they refer to. Names and notes keep the numbering of the source. Values joined by “and” are separate entries in the source; they are usually repeats but may differ in a detail not shown here. Identical values can stand only once.

B1: ADWA11 VH05-2/VK01 IgG (antibody, V domains shown)
VH: EVQLVESGGGLVQPGGSLRLSCAASGFNIKDYYMNWVRQAPGKGLEWVGWIDPDQGNTIYEPKFQGRFTISADTSKNSAYLQMNSLRAEDTAVYYCARRLLMDYWGQGTLVTVSS
VL: DIQMTQSPSSLSASVGDRVTITCRSTKSLLHFNGNTYLFWYQQKPGKAPKRLIYYMSNLASGVPSRFSGSGSGTDFTLTISSLQPEDFATYYCMQSLEYPFTFGQGTKVEIK
notes: also called ADWA11 5-2_1; VH05/VK01-N55Q-D61E
B2: ADWA11 VH05-1/VK01 IgG (antibody, V domains shown)
VH: B1 VH with Q55N
VL: B1 VL
notes: VH05 with D61E; also called ADWA11 5-1_1; VH05/VK01-D61E
B3: ADWA11 VH05-2/VK01 Fab with N58S in VL (Fab, V domains shown)
VH: B1 VH
VL: B1 VL with N58S
B4: ADWA11 VH05-2/VK01 Fab (parental) (Fab, V domains shown)
VH: B1 VH
VL: B1 VL
B5: ADWA11 VH05-2/VK01 Fab with M56A in VL (Fab, V domains shown)
VH: B1 VH
VL: B1 VL with M56A
B6: ADWA11 VH05-2/VK01(2.1) antibody (antibody, V domains shown)
VH: B1 VH
VL: B1 VL with L30S, M94Q, Q105G
notes: also called ADWA11 2.1
B7: ADWA11 VH05/VK01 Fab with N57Q in VH (Fab, V domains shown)
VH: B1 VH with Q55N, N57Q, E61D
VL: B1 VL
B8: ADWA11 VH05/VK01 Fab with K30A in VH (Fab, V domains shown)
VH: B1 VH with K30A, Q55N, E61D
VL: B1 VL
B9: ADWA11 VH05/VK01 Fab with N55Q in VH (Fab, V domains shown)
VH: B1 VH with E61D
VL: B1 VL
B10: ADWA11 VH05/VK01 Fab with K63A in VH (Fab, V domains shown)
VH: B1 VH with Q55N, E61D, K63A
VL: B1 VL
B11: ADWA11 VH05/VK01 Fab with P62A in VH (Fab, V domains shown)
VH: B1 VH with Q55N, E61D, P62A
VL: B1 VL
B12: ADWA11 VH05/VK01 Fab with D61E in VH (Fab, V domains shown)
VH: B1 VH with Q55N
VL: B1 VL
B13: ADWA11 VH01/VK01 IgG (antibody, V domains shown)
VH: B1 VH with G49A, Q55N, E61D, A72R, T74N, S75A, A79L
VL: B1 VL
B14: ADWA11 VH02/VK01 IgG (antibody, V domains shown)
VH: B1 VH with G49A, Q55N, E61D, T74N, S75A, A79L
VL: B1 VL
B15: ADWA11 VH03/VK02 IgG (antibody, V domains shown)
VH: B1 VH with Q55N, E61D, T74N, S75A
VL: B1 VL with Y41F
B16: ADWA11 VH03/VK01 IgG (antibody, V domains shown)
VH: B1 VH with Q55N, E61D, T74N, S75A
VL: B1 VL
B17: ADWA11 2.3 (F64V) Fab (Fab, V domains shown)
VH: B1 VH with F64V
VL: B1 VL with L30S, M56A, M94Q, Q105G
B18: ADWA11 2.1 (F64V) Fab (Fab, V domains shown)
VH: B1 VH with F64V
VL: B1 VL with L30S, M94Q, Q105G
B19: ADWA11 2.2 Fab (Fab, V domains shown)
VH: B1 VH
VL: B1 VL with L30S, L97Y, Q105G
B20: ADWA11 2.1 Fab (Fab, V domains shown)
VH: B1 VH
VL: B1 VL with L30S, M94Q, Q105G
B21: ADWA11 2.4 (F64V) Fab (Fab, V domains shown)
VH: B1 VH with F64V
VL: B1 VL with L30S, N58S, M94Q, Q105G
B22: ADWA11 2.3 Fab (Fab, V domains shown)
VH: B1 VH
VL: B1 VL with L30S, M56A, M94Q, Q105G
B23: ADWA11 VH05-2/VK01 Fab with M94Q in VL (Fab, V domains shown)
VH: B1 VH
VL: B1 VL with M94Q
B24: ADWA11 VH05-2/VK01 Fab with F101L in VL (Fab, V domains shown)
VH: B1 VH
VL: B1 VL with F101L
B25: ADWA11 VH05-2/VK01 Fab with L30S in VL (Fab, V domains shown)
VH: B1 VH
VL: B1 VL with L30S
B26: ADWA11 VH05-2/VK01 Fab with F64V in VH (Fab, V domains shown)
VH: B1 VH with F64V
VL: B1 VL
B27: ADWA11 VH05-2/VK01 Fab with L97Y in VL (Fab, V domains shown)
VH: B1 VH
VL: B1 VL with L97Y
B28: ADWA11 VH05-2/VK01 Fab with Q105G in VL (Fab, V domains shown)
VH: B1 VH
VL: B1 VL with Q105G
B29: ADWA11 VH01/VK01 Fab (Fab, V domains shown)
VH: B1 VH with G49A, Q55N, E61D, A72R, T74N, S75A, A79L
VL: B1 VL
B30: ADWA11 VH03/VK01 Fab (Fab, V domains shown)
VH: B1 VH with Q55N, E61D, T74N, S75A
VL: B1 VL
B31: ADWA11 VH02/VK01 Fab (Fab, V domains shown)
VH: B1 VH with G49A, Q55N, E61D, T74N, S75A, A79L
VL: B1 VL
B32: ADWA11 VH03/VK02 Fab (Fab, V domains shown)
VH: B1 VH with Q55N, E61D, T74N, S75A
VL: B1 VL with Y41F

molecular target: T1, recombinant human αvβ6 integrin (human, UniProt P06756 31-992; P18564 22-707); experiment: Biacore, recombinant human αvβ6 immobilised on the chip; concentration not shown
T1 construct: Used in ELISA and immobilised on the Biacore chip; construct not described; also called hαvβ6; AVB6
T1 sequence (P06756 31-992 limits assumed, chain 1 of 2): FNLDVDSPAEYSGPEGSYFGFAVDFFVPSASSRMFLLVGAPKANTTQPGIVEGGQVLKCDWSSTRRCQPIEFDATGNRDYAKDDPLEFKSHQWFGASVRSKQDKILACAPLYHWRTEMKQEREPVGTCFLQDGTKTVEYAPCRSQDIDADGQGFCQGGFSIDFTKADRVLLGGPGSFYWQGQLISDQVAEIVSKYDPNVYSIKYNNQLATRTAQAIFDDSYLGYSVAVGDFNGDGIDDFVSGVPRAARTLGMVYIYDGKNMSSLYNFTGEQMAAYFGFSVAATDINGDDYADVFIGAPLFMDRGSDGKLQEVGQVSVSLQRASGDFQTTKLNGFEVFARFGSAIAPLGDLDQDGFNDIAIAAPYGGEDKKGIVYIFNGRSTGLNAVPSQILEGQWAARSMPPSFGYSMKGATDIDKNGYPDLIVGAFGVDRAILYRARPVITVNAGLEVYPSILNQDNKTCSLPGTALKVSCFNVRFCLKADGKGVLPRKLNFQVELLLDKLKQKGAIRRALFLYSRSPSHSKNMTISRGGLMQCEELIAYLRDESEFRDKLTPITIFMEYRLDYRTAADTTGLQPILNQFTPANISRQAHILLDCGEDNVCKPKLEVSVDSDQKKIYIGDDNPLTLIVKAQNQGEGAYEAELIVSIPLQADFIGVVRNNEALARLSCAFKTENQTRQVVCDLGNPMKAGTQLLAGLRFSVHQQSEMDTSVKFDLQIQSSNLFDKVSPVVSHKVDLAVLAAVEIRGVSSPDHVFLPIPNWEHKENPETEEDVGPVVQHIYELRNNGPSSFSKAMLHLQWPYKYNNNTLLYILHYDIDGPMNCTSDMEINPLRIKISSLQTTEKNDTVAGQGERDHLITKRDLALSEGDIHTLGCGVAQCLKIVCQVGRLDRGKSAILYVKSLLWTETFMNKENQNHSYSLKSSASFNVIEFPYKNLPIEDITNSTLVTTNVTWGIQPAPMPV
T1 sequence (P18564 22-707 limits assumed, chain 2 of 2): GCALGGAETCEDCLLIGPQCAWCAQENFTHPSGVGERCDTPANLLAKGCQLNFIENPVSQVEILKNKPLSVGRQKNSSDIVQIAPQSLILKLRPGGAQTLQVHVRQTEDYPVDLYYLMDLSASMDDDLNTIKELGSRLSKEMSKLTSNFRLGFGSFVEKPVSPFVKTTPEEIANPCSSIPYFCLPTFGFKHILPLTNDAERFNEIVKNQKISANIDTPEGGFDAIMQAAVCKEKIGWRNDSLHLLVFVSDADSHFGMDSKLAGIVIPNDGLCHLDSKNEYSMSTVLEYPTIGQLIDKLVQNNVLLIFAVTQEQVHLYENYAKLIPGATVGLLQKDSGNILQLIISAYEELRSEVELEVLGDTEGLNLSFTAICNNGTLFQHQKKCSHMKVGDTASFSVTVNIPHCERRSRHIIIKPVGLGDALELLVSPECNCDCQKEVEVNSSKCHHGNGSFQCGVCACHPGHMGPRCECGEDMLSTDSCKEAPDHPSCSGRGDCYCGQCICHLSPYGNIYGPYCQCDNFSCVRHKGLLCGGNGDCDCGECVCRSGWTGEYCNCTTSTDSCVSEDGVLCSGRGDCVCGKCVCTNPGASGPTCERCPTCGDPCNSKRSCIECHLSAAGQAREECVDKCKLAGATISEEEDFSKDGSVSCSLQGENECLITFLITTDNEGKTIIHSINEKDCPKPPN
Description: (§1) To evaluate the specificity of ADWA11 2.4, recombinant human αvβ6 and αvβ3 were immobilized on a Biacore chip and binding of the parental murine and humanized mAb variant of ADWA11 2.4 was determined.

Row | binding result | Binder
1 | no binding | B1
2 | no binding | B2

molecular target: T2, human αvβ8 integrin on U251 cells (human, UniProt P06756 31-1048); experiment: flow cytometry, Fab binding to fixed U251 cells (ΔMFI, background subtracted); EC50 unit inferred, axis Log10 [Ab] (nM)

Row | EC50 [nM] | Binder
3 | 0.229 | B3
4 | 0.224 | B4
5 | 0.205 | B5

molecular target: T3, mouse αvβ8 integrin on C8-S cells (mouse, UniProt P43406 31-1044; Q0VBD0 22-767); experiment: flow cytometry, IgG binding to C8-S cells (MFI PE-A), right panel ADWA11_IgG_C8-S cell binding; EC50 unit inferred, axis Log10 [mAb] nM
T3 construct: Endogenous αvβ8 of C8-S mouse astrocyte cells; also called C8-S (mouse astrocyte); C8-S (mouse avb8)
T3 sequence (P43406 31-1044 limits assumed, chain 1 of 2): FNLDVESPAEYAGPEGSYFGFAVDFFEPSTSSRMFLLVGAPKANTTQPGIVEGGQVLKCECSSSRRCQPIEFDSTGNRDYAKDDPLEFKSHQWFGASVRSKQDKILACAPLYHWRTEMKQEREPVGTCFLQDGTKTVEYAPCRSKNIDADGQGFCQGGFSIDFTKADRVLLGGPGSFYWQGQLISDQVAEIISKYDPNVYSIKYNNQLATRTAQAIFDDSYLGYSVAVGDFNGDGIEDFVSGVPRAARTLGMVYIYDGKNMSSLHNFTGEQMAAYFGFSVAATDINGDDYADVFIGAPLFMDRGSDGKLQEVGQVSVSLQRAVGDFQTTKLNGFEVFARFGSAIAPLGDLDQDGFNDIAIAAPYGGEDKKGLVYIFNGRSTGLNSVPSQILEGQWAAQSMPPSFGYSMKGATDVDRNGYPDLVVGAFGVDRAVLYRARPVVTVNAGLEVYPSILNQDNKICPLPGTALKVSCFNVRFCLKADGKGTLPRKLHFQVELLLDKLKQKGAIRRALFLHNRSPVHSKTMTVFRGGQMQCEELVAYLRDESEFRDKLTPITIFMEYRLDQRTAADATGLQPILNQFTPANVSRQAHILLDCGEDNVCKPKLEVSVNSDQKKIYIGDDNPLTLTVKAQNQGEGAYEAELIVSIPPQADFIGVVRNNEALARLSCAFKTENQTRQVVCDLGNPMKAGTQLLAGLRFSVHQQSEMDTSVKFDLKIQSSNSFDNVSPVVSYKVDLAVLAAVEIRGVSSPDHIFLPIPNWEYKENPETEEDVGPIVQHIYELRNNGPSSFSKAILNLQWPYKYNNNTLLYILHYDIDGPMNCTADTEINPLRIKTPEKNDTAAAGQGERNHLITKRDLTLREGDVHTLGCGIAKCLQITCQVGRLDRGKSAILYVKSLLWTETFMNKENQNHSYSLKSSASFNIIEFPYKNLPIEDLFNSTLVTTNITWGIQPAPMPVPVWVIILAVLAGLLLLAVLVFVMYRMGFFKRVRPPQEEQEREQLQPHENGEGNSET
T3 sequence (Q0VBD0 22-767 limits assumed, chain 2 of 2): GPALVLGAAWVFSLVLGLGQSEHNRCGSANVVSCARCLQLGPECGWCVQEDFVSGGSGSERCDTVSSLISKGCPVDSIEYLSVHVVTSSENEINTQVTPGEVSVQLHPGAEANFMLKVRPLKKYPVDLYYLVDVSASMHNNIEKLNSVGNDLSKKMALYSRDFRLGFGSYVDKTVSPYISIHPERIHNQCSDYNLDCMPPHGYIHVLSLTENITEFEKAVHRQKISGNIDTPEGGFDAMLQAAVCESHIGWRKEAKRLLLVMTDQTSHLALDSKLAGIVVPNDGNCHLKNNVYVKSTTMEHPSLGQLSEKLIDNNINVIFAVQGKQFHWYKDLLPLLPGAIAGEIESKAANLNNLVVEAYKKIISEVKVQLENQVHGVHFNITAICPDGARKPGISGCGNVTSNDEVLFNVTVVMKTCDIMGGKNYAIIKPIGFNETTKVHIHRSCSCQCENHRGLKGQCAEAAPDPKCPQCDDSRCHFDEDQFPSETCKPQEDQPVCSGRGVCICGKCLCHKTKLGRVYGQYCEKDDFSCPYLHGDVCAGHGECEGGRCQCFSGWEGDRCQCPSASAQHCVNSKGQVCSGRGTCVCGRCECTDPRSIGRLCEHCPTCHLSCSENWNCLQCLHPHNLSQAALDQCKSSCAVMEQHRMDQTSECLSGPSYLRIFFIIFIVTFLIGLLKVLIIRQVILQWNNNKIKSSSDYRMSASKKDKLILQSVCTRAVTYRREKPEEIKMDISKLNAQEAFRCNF
Description: 100,000 cells were incubated with a dilution series of the anti-αvβ8 or human IgG1_3 mut Isotype antibody for three to four hours on ice. The cells were spun down for five minutes at 300 g force. The cells were then washed three times with wash buffer (PBS+0.2% BSA) to remove excess unbound antibodies. After thorough washing, cells were incubated with Fab′2 anti-human Fc-PE (Invitrogen) or goat Fab′2 anti-mouse-APC (Jackson Labs) at 1:1000 dilution along with LIVE/DEAD fixable cell stain (Invitrogen) at 1:2000 to distinguish live cells. The whole content was incubated for 30 minutes on ice. After washing, the stained cells were analyzed on BD biosciences Fortessa flow cytometer (gated for live cells) using FlowJo analysis software. The mean fluorescence intensities (MFI) at different antibody concentrations were plotted for various antibodies.
The apparent-affinity of ADWA11 2.4 for U251 (human glioblastoma) or C8-S (mouse astrocyte) cells was also evaluated in a cell-binding assay, according to the methods as generally described herein. Briefly, cells were incubated with a serial dilution of ADWA11 2.4 for 4 hours on ice, followed by detection on bound antibody with an anti-human-PE secondary antibody, and analyzed by flow cytometry.

Row | EC50 [nM] | Binder
6 | 0.0591 | B1
7 | 0.106 | B6

molecular target: recombinant human αvβ8 integrin (human) (UniProt P06756); experiment: ELISA (DELFIA counts) on human αvβ8, Fab titration
Sequence (P06756 31-992 limits assumed, form in doubt, chain 1 of 2): as the sequence (P06756 31-992 limits assumed, chain 1 of 2) above
Sequence (chain, as listed by the source limits assumed, form in doubt, chain 2 of 2): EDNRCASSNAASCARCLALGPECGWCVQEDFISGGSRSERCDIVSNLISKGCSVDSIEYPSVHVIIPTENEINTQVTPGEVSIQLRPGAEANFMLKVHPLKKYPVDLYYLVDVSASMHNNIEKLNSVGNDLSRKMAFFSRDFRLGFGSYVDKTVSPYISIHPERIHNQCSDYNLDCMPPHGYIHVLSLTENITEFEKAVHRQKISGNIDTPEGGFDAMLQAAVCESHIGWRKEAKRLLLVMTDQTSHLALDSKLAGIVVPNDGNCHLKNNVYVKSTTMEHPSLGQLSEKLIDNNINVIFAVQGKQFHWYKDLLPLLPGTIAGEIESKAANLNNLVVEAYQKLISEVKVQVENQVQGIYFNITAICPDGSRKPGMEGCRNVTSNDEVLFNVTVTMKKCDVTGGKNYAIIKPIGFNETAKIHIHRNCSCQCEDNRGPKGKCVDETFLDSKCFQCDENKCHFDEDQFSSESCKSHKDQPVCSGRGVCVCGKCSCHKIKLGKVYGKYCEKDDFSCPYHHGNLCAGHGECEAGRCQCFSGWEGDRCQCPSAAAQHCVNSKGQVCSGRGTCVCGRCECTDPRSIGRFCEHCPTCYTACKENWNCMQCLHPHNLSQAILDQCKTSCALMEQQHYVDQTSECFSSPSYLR

Row | EC50 (read off the curve) [nM] | Binder
8 | 1 | B7
9 | 1 | B8
10 | 1 | B9
11 | 1 | B10
12 | 1 | B11
13 | 1 | B12

molecular target: T2, human αvβ8 integrin on U251 cells; experiment: cell-based or functional assay

Row | IgG Potency TGFB Assay IC50 (pM) | Binder
14 | 8470 | B13
15 | 1760 | B14
16 | 223 | B15
17 | 138 | B16

molecular target: T2, human αvβ8 integrin on U251 cells; experiment: flow cytometry, Fab binding to fixed U251 cells (MFI APC-A); EC50 unit inferred, axis Log10 [Ab] (nM)

Row | EC50 [nM] | Binder
18 | 0.28 | B17
19 | 0.225 | B18
20 | 0.198 | B4
21 | 0.225 | B19
22 | 0.218 | B20
23 | 0.211 | B21
24 | 0.452 | B22

molecular target: T4, recombinant human αvβ3 integrin (human, UniProt P06756 31-992; P05106 27-718); experiment: Biacore, recombinant human αvβ3 immobilised on the chip; concentration not shown
T4 construct: Used in ELISA and immobilised on the Biacore chip; construct not described; also called hαvβ3; AVB3
T4 sequence (P06756 31-992 limits assumed, chain 1 of 2): as the sequence (P06756 31-992 limits assumed, chain 1 of 2) above
T4 sequence (P05106 27-718 limits assumed, chain 2 of 2): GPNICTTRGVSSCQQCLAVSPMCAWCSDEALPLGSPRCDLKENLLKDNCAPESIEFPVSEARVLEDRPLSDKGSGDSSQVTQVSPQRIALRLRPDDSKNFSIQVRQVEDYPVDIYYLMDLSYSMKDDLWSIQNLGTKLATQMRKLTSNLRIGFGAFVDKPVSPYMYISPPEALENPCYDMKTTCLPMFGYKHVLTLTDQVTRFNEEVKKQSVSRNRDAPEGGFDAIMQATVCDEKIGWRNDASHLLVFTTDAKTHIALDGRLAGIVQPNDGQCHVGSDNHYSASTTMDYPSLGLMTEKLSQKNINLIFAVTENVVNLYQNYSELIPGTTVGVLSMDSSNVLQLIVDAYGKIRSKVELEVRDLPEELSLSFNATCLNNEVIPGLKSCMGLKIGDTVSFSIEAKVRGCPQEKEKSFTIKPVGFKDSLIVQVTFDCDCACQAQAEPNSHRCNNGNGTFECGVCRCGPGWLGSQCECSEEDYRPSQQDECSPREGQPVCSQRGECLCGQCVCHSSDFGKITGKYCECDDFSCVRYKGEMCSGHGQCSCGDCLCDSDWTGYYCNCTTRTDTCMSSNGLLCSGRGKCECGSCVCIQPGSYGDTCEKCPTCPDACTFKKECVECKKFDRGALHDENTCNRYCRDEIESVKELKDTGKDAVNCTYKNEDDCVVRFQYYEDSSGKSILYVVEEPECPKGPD
Description: as §1

Row | binding result | Binder
25 | no binding | B1
26 | no binding | B2

molecular target: T2, human αvβ8 integrin on U251 cells; experiment: flow cytometry, IgG binding to U251 cells (MFI PE-A), left panel ADWA11_IgG_U251 cell binding; EC50 unit inferred, axis Log10 [mAb] nM

Row | EC50 [nM] | Binder
27 | 0.0711 | B1
28 | 0.1 | B6

molecular target: T2, human αvβ8 integrin on U251 cells; experiment: flow cytometry, Fab binding to fixed U251 cells (ΔMFI, background subtracted); EC50 unit inferred, axis Log10 [FAB] nM

Row | EC50 [nM] | Binder
29 | 0.641 | B23
30 | 1.56 | B24
31 | 0.544 | B25
32 | 0.588 | B26
33 | 0.544 | B27
34 | 0.613 | B4
35 | 0.486 | B28

molecular target: recombinant human αvβ8 integrin (human) (UniProt P06756); experiment: SPR (Biacore), Fab affinity of Table 3

Row | Kd | fold lower KD than the mouse hybridoma antibody ADWA-11 [fold] | Binder
36 | 6.86 nM | – | B29
37 | 0.0735 nM and < 0.1 nM | > 5 | B30
38 | 1.89 nM | – | B31
39 | 0.373 nM and 0.37 nM | – | B32
